Consider one molecule from patent US20250257126A1 (CAMBRIDGE ENTERPRISE, published 2025).

The target of one test is T1, murine LGR4 transgene (mouse, UniProt A2ARI4 25-951).
T1 construct: whole, on cells; Overexpressed in HEK293T cells with N-terminal HA tag, V2 receptor tail and eGFP; also tested as lysate; also called mLGR4
The test can be described thus: immunofluorescence of HEK293T cells expressing LGR-eGFP transgenes with α-LGR5v4. The source says:
(§1) B. Indirect immune fluorescence analysis of human and murine LGR family expressing HEK293T cells using the a-LGR5v4 antibody (in red), the Alexa488-coupled Phalloidin F-actin probe alongside eGFP fluorescence imaging. In the bottom row of images, LGR5-expressing HEK293T cells were stained with a-LGR5v6. C. H&E staining of tissue sections from a-LGR5v6-ADC (top row) and a-LGR5v4-ADC (bottom row) treated mice.

Test [1] deals with T2, human LGR5-eGFP transgene (human, UniProt O75473 22-907).
T2 construct: Tested on live or fixed cells and as cell lysates on western blots; also called hLGR5-eGFP; LGR5-GFP
T2 sequence: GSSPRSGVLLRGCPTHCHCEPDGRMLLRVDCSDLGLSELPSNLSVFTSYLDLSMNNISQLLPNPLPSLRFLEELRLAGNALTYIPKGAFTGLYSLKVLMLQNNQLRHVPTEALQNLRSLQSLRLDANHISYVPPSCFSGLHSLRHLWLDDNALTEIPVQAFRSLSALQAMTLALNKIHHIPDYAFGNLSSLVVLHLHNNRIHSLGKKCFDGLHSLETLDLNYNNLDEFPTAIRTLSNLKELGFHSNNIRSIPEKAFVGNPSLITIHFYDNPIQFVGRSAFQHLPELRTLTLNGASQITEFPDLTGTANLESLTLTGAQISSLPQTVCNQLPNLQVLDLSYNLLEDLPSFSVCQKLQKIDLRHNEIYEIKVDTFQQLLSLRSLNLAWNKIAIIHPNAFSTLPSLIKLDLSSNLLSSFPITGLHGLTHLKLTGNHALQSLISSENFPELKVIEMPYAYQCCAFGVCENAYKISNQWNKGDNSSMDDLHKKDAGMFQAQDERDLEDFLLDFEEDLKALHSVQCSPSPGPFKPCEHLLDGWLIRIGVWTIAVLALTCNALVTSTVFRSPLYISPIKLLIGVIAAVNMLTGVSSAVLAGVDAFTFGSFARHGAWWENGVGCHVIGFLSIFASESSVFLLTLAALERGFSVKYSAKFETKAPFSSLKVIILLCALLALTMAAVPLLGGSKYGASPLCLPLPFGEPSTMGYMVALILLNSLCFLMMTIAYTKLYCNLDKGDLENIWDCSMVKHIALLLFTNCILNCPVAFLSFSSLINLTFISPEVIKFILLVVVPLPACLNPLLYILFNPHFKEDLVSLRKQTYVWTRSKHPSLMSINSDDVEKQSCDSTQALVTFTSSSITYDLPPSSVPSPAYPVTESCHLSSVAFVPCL
The test can be described thus: western blot of lysates of HEK293T cells expressing mLGR5, hLGR5 or cynoLGR5 transgenes, probed with α-LGR5v4. The protocol:
as §1
(§2) Western blots of HEK293t, LoVo and NALM6 lysates was carried out with 40 μg of protein.
(In western blotting, separated proteins are transferred to a membrane and probed.)

In another test the target is T3, murine LGR5 transgene (mouse, UniProt Q9Z1P4 22-907).
T3 construct: whole, on cells; Overexpressed in HEK293T cells with N-terminal HA tag, V2 receptor tail and eGFP; also tested as lysate; also called mLGR5; mLGR5-eGFP
T3 sequence (looked up): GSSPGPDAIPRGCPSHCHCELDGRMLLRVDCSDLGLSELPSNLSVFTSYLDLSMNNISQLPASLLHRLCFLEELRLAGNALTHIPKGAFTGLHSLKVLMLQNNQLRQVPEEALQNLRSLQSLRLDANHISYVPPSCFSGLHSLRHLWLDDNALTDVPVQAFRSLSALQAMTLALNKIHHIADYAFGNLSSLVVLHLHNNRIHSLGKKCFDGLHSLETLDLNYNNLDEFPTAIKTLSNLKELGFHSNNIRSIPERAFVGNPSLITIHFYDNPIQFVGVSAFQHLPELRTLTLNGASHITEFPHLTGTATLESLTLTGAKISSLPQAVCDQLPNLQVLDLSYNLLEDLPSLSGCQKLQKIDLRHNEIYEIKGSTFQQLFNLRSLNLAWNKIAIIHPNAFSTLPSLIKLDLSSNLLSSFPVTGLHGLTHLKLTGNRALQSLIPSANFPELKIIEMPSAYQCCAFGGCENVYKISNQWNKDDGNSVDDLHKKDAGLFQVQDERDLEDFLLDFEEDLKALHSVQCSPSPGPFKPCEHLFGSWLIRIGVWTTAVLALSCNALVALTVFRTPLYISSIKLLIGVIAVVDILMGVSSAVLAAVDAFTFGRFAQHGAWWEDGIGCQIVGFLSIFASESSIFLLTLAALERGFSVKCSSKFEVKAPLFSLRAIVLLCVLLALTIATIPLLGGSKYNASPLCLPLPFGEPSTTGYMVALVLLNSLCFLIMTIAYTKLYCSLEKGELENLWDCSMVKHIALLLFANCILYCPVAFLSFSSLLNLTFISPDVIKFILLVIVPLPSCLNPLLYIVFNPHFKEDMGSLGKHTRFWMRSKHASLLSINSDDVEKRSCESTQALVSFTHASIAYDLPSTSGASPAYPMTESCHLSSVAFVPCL
The description is as above. The protocol:
as §1, §2

B1: α-LGR5 variant 4 (antibody, human IgG1, kappa, V domains shown)
VH: QVQLVQSGAEVKKPGASVKVSCKASGYTFTNYWMQWVRQAPGQGLEWIGEIDPSDSYTNYNQKFQGRVTLTVDTSTSTAYMELSSLRSEDTAVYYCARSLSGYVDYWGQGTTVTVSS
VL: EIVMTQSPATLSLSPGERATLSCRASQDISNRLNWYQQKPGQAVRLLISYRSRRHTGIPARFSGSGSGTDYTLTISSLEPEDFAVYYCQQGNSLPPTFGGGTKLEIKR
notes: Humanized antibody; also called α-LGR5v4; clone 2.4
Consider B1, for which the figures for the binding result (in the test with murine LGR4 transgene; in test [1]; in the test with murine LGR5 transgene) were “no binding”, “binds” and “no binding”, respectively.
